PMC9579124, “IKKβ binds NLRP3 providing a shortcut to inflammasome activation for rapid immune responses” (Signal Transduction and Targeted Therapy, 2022)

Biological target: T1, MST-Red-NLRP3 (UniProt Q96P20 1-1036, MST-Red label (position not given))
T1 construct: NLRP3 labelled with MST-Red for microscale thermophoresis
Assay: MST; in solution; 50 nM MST-Red-NLRP3 titrated against increasing concentrations of IKKβ; two independent titrations
Details: both partners purified

T1 sequence (Q96P20 whole entry): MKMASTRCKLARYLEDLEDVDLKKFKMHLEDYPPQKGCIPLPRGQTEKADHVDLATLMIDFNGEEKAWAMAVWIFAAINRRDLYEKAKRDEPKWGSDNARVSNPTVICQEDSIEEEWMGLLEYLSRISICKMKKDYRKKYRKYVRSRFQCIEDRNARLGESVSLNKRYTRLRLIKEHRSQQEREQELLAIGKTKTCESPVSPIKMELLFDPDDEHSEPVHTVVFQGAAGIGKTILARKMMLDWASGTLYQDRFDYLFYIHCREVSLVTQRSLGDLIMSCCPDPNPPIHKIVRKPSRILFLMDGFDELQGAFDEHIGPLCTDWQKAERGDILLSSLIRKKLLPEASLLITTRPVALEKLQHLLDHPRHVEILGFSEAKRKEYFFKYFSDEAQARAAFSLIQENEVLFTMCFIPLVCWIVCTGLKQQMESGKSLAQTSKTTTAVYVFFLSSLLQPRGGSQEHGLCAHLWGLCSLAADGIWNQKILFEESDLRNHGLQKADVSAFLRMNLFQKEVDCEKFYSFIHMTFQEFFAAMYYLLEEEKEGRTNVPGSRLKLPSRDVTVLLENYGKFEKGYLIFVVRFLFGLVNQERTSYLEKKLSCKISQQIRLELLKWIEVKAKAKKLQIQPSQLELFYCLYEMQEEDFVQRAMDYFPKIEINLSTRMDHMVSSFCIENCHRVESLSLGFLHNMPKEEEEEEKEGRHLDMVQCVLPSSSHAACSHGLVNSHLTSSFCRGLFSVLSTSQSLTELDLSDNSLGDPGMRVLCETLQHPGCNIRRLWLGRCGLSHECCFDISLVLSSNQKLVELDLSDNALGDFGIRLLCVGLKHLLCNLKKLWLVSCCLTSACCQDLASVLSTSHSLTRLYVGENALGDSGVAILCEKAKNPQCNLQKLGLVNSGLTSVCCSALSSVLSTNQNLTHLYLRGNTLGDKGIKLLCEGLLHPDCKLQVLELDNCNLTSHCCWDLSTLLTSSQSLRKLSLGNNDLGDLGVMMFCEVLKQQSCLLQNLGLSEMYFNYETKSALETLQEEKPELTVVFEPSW

Kd: 1430 ± 350 nM
B1: IKKβ used for microscale thermophoresis (enzyme, UniProt O14920 1-756, looked up)
chain: MSWSPSLTTQTCGAWEMKERLGTGGFGNVIRWHNQETGEQIAIKQCRQELSPRNRERWCLEIQIMRRLTHPNVVAARDVPEGMQNLAPNDLPLLAMEYCQGGDLRKYLNQFENCCGLREGAILTLLSDIASALRYLHENRIIHRDLKPENIVLQQGEQRLIHKIIDLGYAKELDQGSLCTSFVGTLQYLAPELLEQQKYTVTVDYWSFGTLAFECITGFRPFLPNWQPVQWHSKVRQKSEVDIVVSEDLNGTVKFSSSLPYPNNLNSVLAERLEKWLQLMLMWHPRQRGTDPTYGPNGCFKALDDILNLKLVHILNMVTGTIHTYPVTEDESLQSLKARIQQDTGIPEEDQELLQEAGLALIPDKPATQCISDGKLNEGHTLDMDLVFLFDNSKITYETQISPRPQPESVSCILQEPKRNLAFFQLRKVWGQVWHSIQTLKEDCNRLQQGQRAAMMNLLRNNSCLSKMKNSMASMSQQLKAKLDFFKTSIQIDLEKYSEQTEFGITSDKLLLAWREMEQAVELCGRENEVKLLVERMMALQTDIVDLQRSPMGRKQGGTLDDLEEQARELYRRLREKPRDQRTEGDSQEMVRLLLQAIQSFEKKVRVIYTQLSKTVVCKQKALELLPKVEEVVSLMNEDEKTVVRLQEKRQKELWNLLKIACSKVRGPVSGSPDSMNASRLSQPGQLMSQPSTASNSLPEPAKKSEELVAEAHNLCTLLENAIQDTVREQDQSFTALDWSWLQTEEEEHSCLEQAS
notes: IKKβ titrated in MST
